Experiments:
kbtb7_human KBTBD7 = target: T1, kbtb7_human KBTBD7 (UniProt Q8WVZ9)
T1 sequence: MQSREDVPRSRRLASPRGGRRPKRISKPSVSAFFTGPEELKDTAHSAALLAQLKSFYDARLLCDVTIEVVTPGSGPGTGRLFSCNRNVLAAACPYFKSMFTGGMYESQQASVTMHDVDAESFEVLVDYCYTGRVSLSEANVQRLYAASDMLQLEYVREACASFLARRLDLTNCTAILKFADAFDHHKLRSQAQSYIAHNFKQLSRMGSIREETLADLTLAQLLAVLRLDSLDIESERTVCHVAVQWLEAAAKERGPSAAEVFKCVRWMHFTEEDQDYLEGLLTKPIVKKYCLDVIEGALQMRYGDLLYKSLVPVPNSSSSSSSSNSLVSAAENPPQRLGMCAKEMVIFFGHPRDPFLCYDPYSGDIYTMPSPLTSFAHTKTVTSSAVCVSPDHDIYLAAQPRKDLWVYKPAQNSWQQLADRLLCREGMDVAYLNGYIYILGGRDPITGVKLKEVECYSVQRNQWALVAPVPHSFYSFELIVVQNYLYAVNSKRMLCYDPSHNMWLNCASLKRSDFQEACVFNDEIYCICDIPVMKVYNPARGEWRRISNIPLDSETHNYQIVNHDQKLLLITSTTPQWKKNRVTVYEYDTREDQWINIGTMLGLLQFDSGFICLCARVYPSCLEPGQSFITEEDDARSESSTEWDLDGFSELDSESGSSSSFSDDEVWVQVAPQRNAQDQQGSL

atg3_human ATG3 = atg3_human ATG3 (UniProt Q9NT62)
rn123_human RNF123 = target: T2, rn123_human RNF123 (UniProt Q5XPI4)
T2 sequence: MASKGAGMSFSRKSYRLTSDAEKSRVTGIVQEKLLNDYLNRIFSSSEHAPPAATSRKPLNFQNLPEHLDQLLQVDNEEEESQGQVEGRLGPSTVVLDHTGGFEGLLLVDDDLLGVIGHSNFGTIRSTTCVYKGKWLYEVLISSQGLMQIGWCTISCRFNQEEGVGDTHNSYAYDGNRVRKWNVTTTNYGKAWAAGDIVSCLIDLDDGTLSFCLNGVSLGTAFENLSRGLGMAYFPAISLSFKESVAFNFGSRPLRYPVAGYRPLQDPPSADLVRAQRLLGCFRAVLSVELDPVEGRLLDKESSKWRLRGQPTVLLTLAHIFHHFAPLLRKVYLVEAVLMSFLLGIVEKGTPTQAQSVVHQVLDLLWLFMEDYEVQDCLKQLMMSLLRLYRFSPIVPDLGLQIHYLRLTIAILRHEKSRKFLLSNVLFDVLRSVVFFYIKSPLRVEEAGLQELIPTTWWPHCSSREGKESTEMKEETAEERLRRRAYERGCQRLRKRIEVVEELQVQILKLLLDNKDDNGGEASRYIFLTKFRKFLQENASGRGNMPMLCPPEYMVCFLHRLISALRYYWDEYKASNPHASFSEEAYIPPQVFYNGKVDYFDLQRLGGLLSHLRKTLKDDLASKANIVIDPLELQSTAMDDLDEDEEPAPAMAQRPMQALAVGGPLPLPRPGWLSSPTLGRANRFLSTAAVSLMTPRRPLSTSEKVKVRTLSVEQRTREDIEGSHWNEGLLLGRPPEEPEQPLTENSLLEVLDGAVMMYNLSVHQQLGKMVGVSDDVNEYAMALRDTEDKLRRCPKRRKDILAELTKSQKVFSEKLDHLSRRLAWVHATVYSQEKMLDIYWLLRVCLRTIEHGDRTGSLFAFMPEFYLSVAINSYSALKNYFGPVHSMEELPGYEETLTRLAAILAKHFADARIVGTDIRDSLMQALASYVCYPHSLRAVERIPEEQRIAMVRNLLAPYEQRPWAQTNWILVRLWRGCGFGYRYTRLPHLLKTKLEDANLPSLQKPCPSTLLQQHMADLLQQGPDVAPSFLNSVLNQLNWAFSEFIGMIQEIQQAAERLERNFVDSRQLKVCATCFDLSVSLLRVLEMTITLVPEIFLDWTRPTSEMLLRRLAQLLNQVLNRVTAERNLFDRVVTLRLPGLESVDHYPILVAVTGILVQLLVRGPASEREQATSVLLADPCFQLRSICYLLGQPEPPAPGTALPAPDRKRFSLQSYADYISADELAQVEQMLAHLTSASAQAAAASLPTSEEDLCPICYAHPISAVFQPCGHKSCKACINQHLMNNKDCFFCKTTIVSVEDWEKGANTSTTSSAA

nips2_human NIPSNAP2 = target: T3, nips2_human NIPSNAP2 (UniProt O75323)
T3 sequence: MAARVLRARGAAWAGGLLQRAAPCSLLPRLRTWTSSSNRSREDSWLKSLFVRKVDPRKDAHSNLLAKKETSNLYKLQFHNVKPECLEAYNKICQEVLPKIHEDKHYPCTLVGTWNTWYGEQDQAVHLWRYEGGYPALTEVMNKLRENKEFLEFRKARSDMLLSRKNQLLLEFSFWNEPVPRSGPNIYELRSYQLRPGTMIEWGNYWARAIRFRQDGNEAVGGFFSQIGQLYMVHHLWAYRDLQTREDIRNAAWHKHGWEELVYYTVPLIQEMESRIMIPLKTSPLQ

nedd4_human NEDD4 = nedd4_human NEDD4 (UniProt P46934)
atg2a_human ATG2A = atg2a_human ATG2A (UniProt Q2TAZ0)
atg10_human ATG10 = atg10_human ATG10 (UniProt Q9H0Y0)
Chain of atg10_human ATG10 (Q9H0Y0 whole entry): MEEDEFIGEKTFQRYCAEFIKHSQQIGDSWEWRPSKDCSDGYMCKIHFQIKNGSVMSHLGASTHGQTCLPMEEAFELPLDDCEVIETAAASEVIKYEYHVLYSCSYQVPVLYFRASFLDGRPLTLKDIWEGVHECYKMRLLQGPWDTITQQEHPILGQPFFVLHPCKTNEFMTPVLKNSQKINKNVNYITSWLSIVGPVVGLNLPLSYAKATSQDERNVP

Chain of atg2a_human ATG2A (Q2TAZ0 whole entry): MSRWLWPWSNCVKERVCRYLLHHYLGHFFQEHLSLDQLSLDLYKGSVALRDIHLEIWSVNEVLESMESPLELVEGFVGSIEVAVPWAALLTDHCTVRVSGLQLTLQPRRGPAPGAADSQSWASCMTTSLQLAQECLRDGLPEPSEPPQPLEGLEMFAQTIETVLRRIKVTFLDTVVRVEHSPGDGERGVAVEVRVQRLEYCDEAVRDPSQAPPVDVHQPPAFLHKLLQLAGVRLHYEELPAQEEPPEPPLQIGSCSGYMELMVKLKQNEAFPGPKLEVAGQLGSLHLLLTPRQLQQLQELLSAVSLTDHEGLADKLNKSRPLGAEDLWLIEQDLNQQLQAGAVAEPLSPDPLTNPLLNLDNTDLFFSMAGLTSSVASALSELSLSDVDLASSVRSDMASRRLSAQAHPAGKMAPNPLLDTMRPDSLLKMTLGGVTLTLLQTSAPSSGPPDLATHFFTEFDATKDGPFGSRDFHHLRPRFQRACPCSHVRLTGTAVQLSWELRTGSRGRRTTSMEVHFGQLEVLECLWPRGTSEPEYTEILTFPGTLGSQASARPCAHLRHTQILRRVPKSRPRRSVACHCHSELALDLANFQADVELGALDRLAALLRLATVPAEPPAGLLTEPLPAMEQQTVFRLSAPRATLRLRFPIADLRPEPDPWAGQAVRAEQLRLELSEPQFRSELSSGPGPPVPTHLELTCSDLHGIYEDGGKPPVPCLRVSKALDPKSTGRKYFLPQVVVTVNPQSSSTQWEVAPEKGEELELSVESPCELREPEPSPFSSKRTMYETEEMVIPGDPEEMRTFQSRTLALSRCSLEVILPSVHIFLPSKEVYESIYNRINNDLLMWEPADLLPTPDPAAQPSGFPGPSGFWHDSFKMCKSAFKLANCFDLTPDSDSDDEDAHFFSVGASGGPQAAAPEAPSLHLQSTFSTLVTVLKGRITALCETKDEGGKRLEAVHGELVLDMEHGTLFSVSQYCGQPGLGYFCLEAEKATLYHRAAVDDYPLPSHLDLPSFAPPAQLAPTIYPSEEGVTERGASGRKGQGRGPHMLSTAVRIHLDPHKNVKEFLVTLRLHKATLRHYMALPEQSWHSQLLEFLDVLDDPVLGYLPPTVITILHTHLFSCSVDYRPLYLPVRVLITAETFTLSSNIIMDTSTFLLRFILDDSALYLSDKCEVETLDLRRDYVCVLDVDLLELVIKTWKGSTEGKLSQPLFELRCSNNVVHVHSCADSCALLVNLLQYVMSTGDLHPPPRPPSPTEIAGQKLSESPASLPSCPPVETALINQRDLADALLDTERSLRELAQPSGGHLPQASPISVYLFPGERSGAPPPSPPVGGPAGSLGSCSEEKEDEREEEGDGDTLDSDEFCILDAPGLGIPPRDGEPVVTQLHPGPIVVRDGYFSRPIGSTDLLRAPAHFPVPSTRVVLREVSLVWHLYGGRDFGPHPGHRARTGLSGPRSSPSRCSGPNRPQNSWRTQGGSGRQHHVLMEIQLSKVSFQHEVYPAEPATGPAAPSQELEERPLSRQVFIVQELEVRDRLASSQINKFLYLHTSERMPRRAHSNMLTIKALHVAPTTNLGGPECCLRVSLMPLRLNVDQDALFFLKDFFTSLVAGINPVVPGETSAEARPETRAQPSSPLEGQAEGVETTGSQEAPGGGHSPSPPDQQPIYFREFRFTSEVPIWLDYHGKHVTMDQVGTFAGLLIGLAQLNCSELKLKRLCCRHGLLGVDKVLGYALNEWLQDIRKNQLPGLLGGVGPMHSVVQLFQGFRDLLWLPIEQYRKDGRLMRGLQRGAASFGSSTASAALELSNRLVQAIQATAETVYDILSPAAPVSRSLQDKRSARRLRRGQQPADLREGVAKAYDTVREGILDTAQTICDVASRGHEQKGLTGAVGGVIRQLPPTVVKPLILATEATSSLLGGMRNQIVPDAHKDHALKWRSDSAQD
Chain of nedd4_human NEDD4 (P46934 whole entry): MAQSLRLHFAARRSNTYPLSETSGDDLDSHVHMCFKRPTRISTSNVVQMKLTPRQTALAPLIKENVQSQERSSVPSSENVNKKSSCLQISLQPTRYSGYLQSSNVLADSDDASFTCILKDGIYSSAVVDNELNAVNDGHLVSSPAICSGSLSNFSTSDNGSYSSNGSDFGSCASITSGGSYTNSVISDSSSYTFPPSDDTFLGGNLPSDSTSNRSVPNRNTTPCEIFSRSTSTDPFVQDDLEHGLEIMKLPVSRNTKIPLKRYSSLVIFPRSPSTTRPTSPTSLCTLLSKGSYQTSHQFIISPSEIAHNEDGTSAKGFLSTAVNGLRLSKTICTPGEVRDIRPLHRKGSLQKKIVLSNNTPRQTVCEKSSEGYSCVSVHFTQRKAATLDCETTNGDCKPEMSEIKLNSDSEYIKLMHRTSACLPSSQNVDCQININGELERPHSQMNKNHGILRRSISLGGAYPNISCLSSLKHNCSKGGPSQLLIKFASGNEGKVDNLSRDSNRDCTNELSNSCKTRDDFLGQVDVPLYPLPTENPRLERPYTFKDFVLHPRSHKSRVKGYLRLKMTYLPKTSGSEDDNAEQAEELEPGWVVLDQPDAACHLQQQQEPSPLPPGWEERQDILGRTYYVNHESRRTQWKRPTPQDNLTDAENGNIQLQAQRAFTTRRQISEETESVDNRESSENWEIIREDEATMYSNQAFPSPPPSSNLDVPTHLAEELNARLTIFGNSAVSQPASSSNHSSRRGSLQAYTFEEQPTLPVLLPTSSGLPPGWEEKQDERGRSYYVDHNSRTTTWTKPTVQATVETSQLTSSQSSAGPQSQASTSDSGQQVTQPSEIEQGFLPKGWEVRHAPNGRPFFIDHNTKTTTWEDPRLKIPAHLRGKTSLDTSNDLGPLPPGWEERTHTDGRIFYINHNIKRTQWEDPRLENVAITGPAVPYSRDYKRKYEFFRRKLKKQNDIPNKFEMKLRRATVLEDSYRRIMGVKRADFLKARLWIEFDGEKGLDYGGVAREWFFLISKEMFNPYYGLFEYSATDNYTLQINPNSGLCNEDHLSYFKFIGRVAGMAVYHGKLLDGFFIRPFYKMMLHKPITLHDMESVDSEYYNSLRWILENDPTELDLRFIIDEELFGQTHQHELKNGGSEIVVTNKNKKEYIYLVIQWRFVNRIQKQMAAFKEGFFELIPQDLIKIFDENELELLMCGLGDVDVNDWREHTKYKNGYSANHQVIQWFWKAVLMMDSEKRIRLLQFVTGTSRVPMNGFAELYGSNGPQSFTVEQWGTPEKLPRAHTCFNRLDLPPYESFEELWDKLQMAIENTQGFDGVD
Chain of atg3_human ATG3 (Q9NT62 whole entry): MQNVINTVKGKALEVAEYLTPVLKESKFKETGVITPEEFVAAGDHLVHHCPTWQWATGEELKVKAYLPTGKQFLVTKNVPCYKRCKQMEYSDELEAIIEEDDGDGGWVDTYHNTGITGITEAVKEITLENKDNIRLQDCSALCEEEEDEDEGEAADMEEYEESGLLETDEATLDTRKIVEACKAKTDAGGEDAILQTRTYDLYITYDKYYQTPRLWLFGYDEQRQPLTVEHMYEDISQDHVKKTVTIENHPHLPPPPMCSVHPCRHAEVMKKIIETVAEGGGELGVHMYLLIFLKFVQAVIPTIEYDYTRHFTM

| Substance | effect of a mutation on the interaction (kbtb7_human KBTBD7) | effect of a mutation on the interaction (atg3_human ATG3) | effect of a mutation on the interaction (rn123_human RNF123) | effect of a mutation on the interaction (nips2_human NIPSNAP2) | effect of a mutation on the interaction (nedd4_human NEDD4) | effect of a mutation on the interaction (atg2a_human ATG2A) | effect of a mutation on the interaction (atg10_human ATG10) |
| --- | --- | --- | --- | --- | --- | --- | --- |
| Microtubule-associated protein 1 light chain 3 beta (Homo sapiens) (from UniProt Q9GZQ8) F52A;L53A | decreasing interaction | disrupting interaction | increasing interaction | increasing interaction | decreasing interaction | increasing interaction | increasing interaction |
| Microtubule-associated protein 1 light chain 3 beta (Homo sapiens) (from UniProt Q9GZQ8) R69A | disrupting interaction | disrupting interaction | decreasing interaction | decreasing interaction | decreasing interaction | decreasing interaction | decreasing interaction |
